Columns and labels:
Gremlin-1 (recombinant) [1] = molecular target: T1, Gremlin-1 (recombinant) (UniProt O60565 25-184); assay: SPR; GREM1 immobilized, aptamer 0.062-1 uM, 25 C; kon 3.39e4 M-1 s-1, koff 1.58e-3 s-1; Aptamer refolded 85 C 5 min, 4 C 2 min, 37 C 10 min; ELONA: PBS, 3% BSA block, 1 h; pull-down: 10 mM PBS with Ca2+ and Mg2+, room temperature; SPR at 25 C (buffer not in material); cell binding: serum-free medium, 37 C, 30 min; conditions: protein: commercial; chain copies: 2; label: biotin (ELONA, pull-down); none stated for SPR; hairpin; predicted stem of 11 bp, 2 internal loops, 1 terminal loop
T1 sequence: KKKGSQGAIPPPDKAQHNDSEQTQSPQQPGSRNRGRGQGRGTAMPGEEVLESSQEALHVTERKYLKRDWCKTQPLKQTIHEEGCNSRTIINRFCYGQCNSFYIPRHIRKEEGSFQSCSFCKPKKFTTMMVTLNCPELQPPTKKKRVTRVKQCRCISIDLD

Gremlin-1 (recombinant) [2] = molecular target: T1, Gremlin-1 (recombinant); assay: ELONA; apparent Kd; unit inferred, nM implied by agreement with SPR; GREM1 coated, 200 nM aptamer; Aptamer refolded 85 C 5 min, 4 C 2 min, 37 C 10 min; ELONA: PBS, 3% BSA block, 1 h; pull-down: 10 mM PBS with Ca2+ and Mg2+, room temperature; SPR at 25 C (buffer not in material); cell binding: serum-free medium, 37 C, 30 min; conditions: protein: commercial; chain copies: 2; label: biotin (ELONA, pull-down); none stated for SPR; hairpin; predicted stem of 11 bp, 2 internal loops, 1 terminal loop

B1: ex.50.T (structured_RNA)
RNA: UGUGGCAGUUAAGAAUAGAUCUUCGCUGCGAUU
modifications: lowercase u/c in printed sequence probably 2'-F pyrimidines (not stated in material)
With B1 the Kd (Gremlin-1 (recombinant) [1]) was 46.7 nM and the Kd (Gremlin-1 (recombinant) [2]) was 37.7 nM.
